B1: Mint1-CID (residues 338-397) [not stated] / CASK-CaMK (residues 1-337) [not stated] (parent)
chain 1: QRYSKEKRDAISLAIKDIKEAIEEVKTRTIRSPYTPDEPKEPIWVMRQDISPTRDCDDQR
chain 2: MADDDVLFEDVYELCEVIGKGPFSVVRRCINRETGQQFAVKIVDVAKFTSSPGLSTEDLKREASICHMLKHPHIVELLETYSSDGMLYMVFEFMDGADLCFEIVKRADAGFVYSEAVASHYMRQILEALRYCHDNNIIHRDVKPHCVLLASKENSAPVKLGGFGVAIQLGESGLVAGGRVGTPHFMAPEVVKREPYGKPVDVWGCGVILFILLSGCLPFYGTKERLFEGIIKGKYKMNPRQWSHISESAKDLVRRMLMLDPAERITVYEALNHPWLKERDRYAYKIHLPETVEQLRKFNARRKLKGAVLAAVSSHKFNSFYGDPPEELPDFSEDPTS

Variants of: B1
Experiment: ITC
Conditions: with CASK-CaMK (residues 1-337); Mint1-CID mutant titrated into CASK(1-337)

| Kd | Variant |
| --- | --- |
| 270 nM | chain 1 I15A I18A I22A |

From paper PMC7736295 (Cell Discovery, 2020)
